# Experimental data as given in the supplement of paper PMC10065799, “High-throughput profiling of sequence recognition by tyrosine kinases and SH2 domains using bacterial peptide display” (eLife, 2023).
# System: c-Src
# Experiment: phosphorylation enrichment, bacterial display (enrichment ratio); higher = better substrate or ligand; peptides without Tyr show the background
# 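Also: 11-residue human phosphosite peptides and single-mutation variants displayed on the E. coli surface, counted by deep sequencing, each peptide's frequency after selection divided by its frequency in the unselected input library; frequency after pTyr selection over input frequency; kinase dosed for 20-30% of maximal phosphorylation in three min.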
row,Sequence,phosphorylation enrichment
1,RETLTYAQAQG [BRD1_Y33_R38G],0.768
2,MSLRSYGSWEG [APC_Y96_R99W],0.705

# System: Fer (mouse)
# Experiment: as above
row,Sequence,phosphorylation enrichment
1,AGQKDYDRLRP [RAC3_Y64_E62K],0.787
2,EWKQKYEESQS [MYH6_Y1462],0.44
3,RNEAFYDTFST [EFCAB3_Y372_S370A],7.96
4,SVTCTYSPVLN [TP53_Y126_A129V],1.02
5,CERLPYDANKW [FLT1_Y815_S818N],0.615
6,NPQKSYFIRLF [WAS_Y83_YF],0.583
7,RNGDRYFKGIV [DCX_Y64],0.549
8,LDPDSYNVFEN [FOXC1_Y159_M161V],0.742
9,LANNEYYFRVC,0.62
10,FASVEYQEALS [GALNS_Y461_A459V],0.47
11,DSEIRYLSADS [TTF1_Y476],0.551
12,VTVLDYEKIGK [SYT1_Y365_D366E],0.412
13,PSVVAYPKRSQ [MARK3_Y432],0.531
14,LPKEQYLCTKE [AFG3L2_Y614_Y616C],0.562
15,CSPLLYRVIMS [OR8D4_Y132],0.577
16,GGPAEYLRRAS [PKLR_Y38_G37E],0.367
17,EPGNLYIAKVE [CNTN4_Y180_T176P],0.408
18,TEQDPSNNIVR [MMUT_Y364_Y364S],0.408
19,GSSKIYFLHAD [TLR5_Y108_P112A],0.423
20,PGQRVYVVAER [SHH_Y316],0.494
21,WQQQSYLDSGI [CTNNB1_Y30],0.428
22,GKGGSYSQAAC [HLA-B_Y344],0.408
23,RSSGPYGGGGQ [HNRNPA1_Y341],0.518
24,FSEVRYVKEPY [HIPK4_Y170],0.404
25,TGDFGYRTPGY [TNS2_Y668_A670T],0.342
26,NESVDYRATFP [MET_Y1003],0.454
27,LERDIYNREEF [HLA-DPB1_Y59_Y57D],0.672
28,RETLTYAQAQG [BRD1_Y33_R38G],0.383

# Biological target: Jak2 (UniProt O60674)
# Experiment: as above
# Sequence of Jak2 (O60674 whole entry, looked up): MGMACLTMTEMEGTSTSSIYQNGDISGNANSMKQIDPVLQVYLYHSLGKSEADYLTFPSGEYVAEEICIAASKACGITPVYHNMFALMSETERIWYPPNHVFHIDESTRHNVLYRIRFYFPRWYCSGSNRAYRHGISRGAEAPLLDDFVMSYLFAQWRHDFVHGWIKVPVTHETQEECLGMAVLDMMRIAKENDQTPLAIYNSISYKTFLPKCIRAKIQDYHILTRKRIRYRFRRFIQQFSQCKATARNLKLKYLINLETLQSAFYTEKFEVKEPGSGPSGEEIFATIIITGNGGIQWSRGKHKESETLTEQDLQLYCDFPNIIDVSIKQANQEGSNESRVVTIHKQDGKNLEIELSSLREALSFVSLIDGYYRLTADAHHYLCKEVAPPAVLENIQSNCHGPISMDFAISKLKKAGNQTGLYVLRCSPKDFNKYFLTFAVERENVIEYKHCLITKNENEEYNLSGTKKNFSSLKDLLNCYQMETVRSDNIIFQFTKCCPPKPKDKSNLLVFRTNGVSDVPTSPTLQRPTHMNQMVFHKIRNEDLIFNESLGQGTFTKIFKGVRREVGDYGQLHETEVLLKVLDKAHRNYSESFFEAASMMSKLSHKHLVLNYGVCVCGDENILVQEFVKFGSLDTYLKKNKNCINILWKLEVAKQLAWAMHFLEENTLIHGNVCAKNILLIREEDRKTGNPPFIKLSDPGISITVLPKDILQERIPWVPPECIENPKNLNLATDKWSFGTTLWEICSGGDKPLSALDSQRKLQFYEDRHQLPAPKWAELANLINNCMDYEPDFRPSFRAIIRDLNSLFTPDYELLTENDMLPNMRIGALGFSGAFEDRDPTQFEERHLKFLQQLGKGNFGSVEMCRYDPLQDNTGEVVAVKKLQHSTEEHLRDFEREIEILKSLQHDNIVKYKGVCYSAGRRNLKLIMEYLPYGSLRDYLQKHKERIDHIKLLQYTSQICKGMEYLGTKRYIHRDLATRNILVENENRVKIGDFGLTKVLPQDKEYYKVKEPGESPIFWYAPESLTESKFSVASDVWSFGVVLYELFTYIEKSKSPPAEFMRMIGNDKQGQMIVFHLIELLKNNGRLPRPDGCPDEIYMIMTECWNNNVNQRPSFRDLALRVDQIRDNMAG
row,Sequence,phosphorylation enrichment
1,AGQKDYDRLRP [RAC3_Y64_E62K],0.546
2,EWKQKYEESQS [MYH6_Y1462],1.04
3,RNEAFYDTFST [EFCAB3_Y372_S370A],1.46
4,SVTCTYSPVLN [TP53_Y126_A129V],1.21
5,CERLPYDANKW [FLT1_Y815_S818N],1.01
6,NPQKSYFIRLF [WAS_Y83_YF],1.21
7,RNGDRYFKGIV [DCX_Y64],0.626
8,LDPDSYNVFEN [FOXC1_Y159_M161V],2.3
9,LANNEYYFRVC,1.51
10,FASVEYQEALS [GALNS_Y461_A459V],0.876
11,DSEIRYLSADS [TTF1_Y476],0.868
12,VTVLDYEKIGK [SYT1_Y365_D366E],0.77
13,PSVVAYPKRSQ [MARK3_Y432],0.531
14,LPKEQYLCTKE [AFG3L2_Y614_Y616C],0.868
15,CSPLLYRVIMS [OR8D4_Y132],0.992
16,GGPAEYLRRAS [PKLR_Y38_G37E],0.508
17,EPGNLYIAKVE [CNTN4_Y180_T176P],0.898
18,TEQDPSNNIVR [MMUT_Y364_Y364S],0.771
19,GSSKIYFLHAD [TLR5_Y108_P112A],0.954
20,PGQRVYVVAER [SHH_Y316],0.556
21,WQQQSYLDSGI [CTNNB1_Y30],0.758
22,GKGGSYSQAAC [HLA-B_Y344],0.569
23,RSSGPYGGGGQ [HNRNPA1_Y341],0.485
24,FSEVRYVKEPY [HIPK4_Y170],1.06
25,TGDFGYRTPGY [TNS2_Y668_A670T],0.484
26,NESVDYRATFP [MET_Y1003],0.749
27,LERDIYNREEF [HLA-DPB1_Y59_Y57D],1.3
28,MSLRSYGSWEG [APC_Y96_R99W],0.793

# Biological target: Fes (UniProt P07332)
# Experiment: as above
# Sequence of Fes (P07332 whole entry, looked up): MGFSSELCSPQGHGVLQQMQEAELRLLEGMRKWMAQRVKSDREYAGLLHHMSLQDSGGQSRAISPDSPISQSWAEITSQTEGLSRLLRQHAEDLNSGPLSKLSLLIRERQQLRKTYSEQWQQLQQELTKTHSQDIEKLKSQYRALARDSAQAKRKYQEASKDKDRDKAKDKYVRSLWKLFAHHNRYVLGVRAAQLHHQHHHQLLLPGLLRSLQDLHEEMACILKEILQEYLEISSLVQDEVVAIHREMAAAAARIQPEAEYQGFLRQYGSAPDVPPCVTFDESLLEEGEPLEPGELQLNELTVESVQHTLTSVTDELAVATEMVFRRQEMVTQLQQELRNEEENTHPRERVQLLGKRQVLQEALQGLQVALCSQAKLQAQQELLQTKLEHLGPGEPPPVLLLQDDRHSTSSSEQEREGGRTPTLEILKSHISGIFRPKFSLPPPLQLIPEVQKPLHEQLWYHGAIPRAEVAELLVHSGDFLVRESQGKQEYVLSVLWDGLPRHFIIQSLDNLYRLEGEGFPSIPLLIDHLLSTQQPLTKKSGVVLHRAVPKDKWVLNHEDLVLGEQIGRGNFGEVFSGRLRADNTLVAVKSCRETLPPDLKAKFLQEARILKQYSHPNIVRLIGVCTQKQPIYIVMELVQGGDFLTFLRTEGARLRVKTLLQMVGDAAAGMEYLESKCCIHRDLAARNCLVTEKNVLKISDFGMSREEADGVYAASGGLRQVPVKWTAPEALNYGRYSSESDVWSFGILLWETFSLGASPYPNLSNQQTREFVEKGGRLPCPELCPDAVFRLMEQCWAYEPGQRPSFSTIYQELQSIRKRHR
row,Sequence,phosphorylation enrichment
1,AGQKDYDRLRP [RAC3_Y64_E62K],0.761
2,EWKQKYEESQS [MYH6_Y1462],1.08
3,RNEAFYDTFST [EFCAB3_Y372_S370A],1.14
4,SVTCTYSPVLN [TP53_Y126_A129V],1.6
5,CERLPYDANKW [FLT1_Y815_S818N],1.16
6,NPQKSYFIRLF [WAS_Y83_YF],1.4
7,RNGDRYFKGIV [DCX_Y64],0.632
8,LDPDSYNVFEN [FOXC1_Y159_M161V],2.2
9,LANNEYYFRVC,1.27
10,FASVEYQEALS [GALNS_Y461_A459V],0.997
11,DSEIRYLSADS [TTF1_Y476],0.933
12,VTVLDYEKIGK [SYT1_Y365_D366E],0.868
13,PSVVAYPKRSQ [MARK3_Y432],0.793
14,LPKEQYLCTKE [AFG3L2_Y614_Y616C],1.01
15,CSPLLYRVIMS [OR8D4_Y132],1.25
16,GGPAEYLRRAS [PKLR_Y38_G37E],0.76
17,EPGNLYIAKVE [CNTN4_Y180_T176P],1.09
18,TEQDPSNNIVR [MMUT_Y364_Y364S],1
19,GSSKIYFLHAD [TLR5_Y108_P112A],0.984
20,PGQRVYVVAER [SHH_Y316],0.91
21,WQQQSYLDSGI [CTNNB1_Y30],0.847
22,GKGGSYSQAAC [HLA-B_Y344],0.649
23,RSSGPYGGGGQ [HNRNPA1_Y341],0.686
24,FSEVRYVKEPY [HIPK4_Y170],1.06
25,TGDFGYRTPGY [TNS2_Y668_A670T],0.651
26,NESVDYRATFP [MET_Y1003],0.802
27,LERDIYNREEF [HLA-DPB1_Y59_Y57D],1.62
28,RETLTYAQAQG [BRD1_Y33_R38G],0.448
29,MSLRSYGSWEG [APC_Y96_R99W],0.881

# Biological target: Hck (UniProt P08631)
# Experiment: as above
# Sequence of Hck (P08631 whole entry, looked up): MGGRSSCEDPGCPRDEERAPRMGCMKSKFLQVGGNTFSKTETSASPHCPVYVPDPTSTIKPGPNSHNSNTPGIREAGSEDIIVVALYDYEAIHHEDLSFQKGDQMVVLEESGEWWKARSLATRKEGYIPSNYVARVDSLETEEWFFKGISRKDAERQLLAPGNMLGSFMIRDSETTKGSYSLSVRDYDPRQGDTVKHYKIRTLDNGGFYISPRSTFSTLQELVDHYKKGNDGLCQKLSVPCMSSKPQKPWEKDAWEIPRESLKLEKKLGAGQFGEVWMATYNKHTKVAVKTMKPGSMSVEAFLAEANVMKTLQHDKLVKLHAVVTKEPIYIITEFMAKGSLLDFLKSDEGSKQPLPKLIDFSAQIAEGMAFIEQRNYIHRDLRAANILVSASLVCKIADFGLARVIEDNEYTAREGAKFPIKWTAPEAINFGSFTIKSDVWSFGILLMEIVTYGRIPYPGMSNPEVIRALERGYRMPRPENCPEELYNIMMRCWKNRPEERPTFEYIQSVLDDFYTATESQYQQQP
row,Sequence,phosphorylation enrichment
1,AGQKDYDRLRP [RAC3_Y64_E62K],0.47
2,EWKQKYEESQS [MYH6_Y1462],0.528
3,RNEAFYDTFST [EFCAB3_Y372_S370A],10.2
4,SVTCTYSPVLN [TP53_Y126_A129V],0.876
5,CERLPYDANKW [FLT1_Y815_S818N],0.43
6,NPQKSYFIRLF [WAS_Y83_YF],0.5
7,RNGDRYFKGIV [DCX_Y64],0.419
8,LDPDSYNVFEN [FOXC1_Y159_M161V],0.613
9,LANNEYYFRVC,0.794
10,FASVEYQEALS [GALNS_Y461_A459V],0.471
11,DSEIRYLSADS [TTF1_Y476],0.458
12,VTVLDYEKIGK [SYT1_Y365_D366E],0.573
13,PSVVAYPKRSQ [MARK3_Y432],0.573
14,LPKEQYLCTKE [AFG3L2_Y614_Y616C],0.409
15,CSPLLYRVIMS [OR8D4_Y132],0.6
16,GGPAEYLRRAS [PKLR_Y38_G37E],0.374
17,EPGNLYIAKVE [CNTN4_Y180_T176P],0.502
18,TEQDPSNNIVR [MMUT_Y364_Y364S],0.408
19,GSSKIYFLHAD [TLR5_Y108_P112A],0.712
20,PGQRVYVVAER [SHH_Y316],0.57
21,WQQQSYLDSGI [CTNNB1_Y30],0.407
22,GKGGSYSQAAC [HLA-B_Y344],0.419
23,RSSGPYGGGGQ [HNRNPA1_Y341],0.616
24,FSEVRYVKEPY [HIPK4_Y170],0.388
25,TGDFGYRTPGY [TNS2_Y668_A670T],0.394
26,NESVDYRATFP [MET_Y1003],0.484
27,LERDIYNREEF [HLA-DPB1_Y59_Y57D],1.17
28,RETLTYAQAQG [BRD1_Y33_R38G],0.982
